Experimental data from patent publication US20200209227A1.

What was measured:
Calmodulin [1] = experiment: BSI, free-solution binding signal; row repeated for a second PDB structure used in the model
Calmodulin [2] = experiment: BSI, free-solution binding signal
Calmodulin [3] = experiment: BSI; molar refractometry; row repeated for a second PDB structure used in the model
Calmodulin [4] = experiment: BSI, calmodulin-calcineurin assay, free solution
Calmodulin [5] = experiment: BSI; molar refractometry from the experimental phase shift at Bmax

BSI ΔRIU (Calmodulin [1]): 0.00049 RIU | BSI ΔRIU (Calmodulin [2]): 0.00049 RIU | Experimental Chi (RIU/M) (Calmodulin [3]): 46100 RIU/M | FreeSRF (binding) signal ΔRIU (Calmodulin [4]): 0.000441 RIU | Experimental Chi (RIU/M) (Calmodulin [5]): 46100 RIU/M
Substance: Calcineurin (enzyme)
